Entries after “also recorded” stand apart in the source; their conditions may differ. Residues, ends and D or L forms follow the SMILES beside them. No end group written: not given here.
Experiments:
Type in all cases: biochemical
[1] = molecular target: T1, rat brain farnesyl:protein transferase (Rattus norvegicus, UniProt Q02293+Q04631); experiment: Farnesyl:protein transferase inhibition: competition with p21H-ras for [3H]farnesyl from [3H]FPP, partially purified enzyme, TCA filter assay
T1 construct: Brains from 50 male Sprague-Dawley rats (100-150 g) were homogenized; from tissue
Method: (§1) Farnesyl:protein transferase activity was determined by measuring the amount of ^3H-farnesol transferred from ^3H]farnesyl pyrophosphate ([^3H]FPP) to p21^H-ras protein. The standard reaction mixture contained the following concentrations of components in a final volume of 25 μl: 50 mM Tris-chloride (pH 7.5), 50 μM ZnCl2, 20 mM KCl, 1 mM DTT, and 40 μM p21^H-ras. The mixture also contained 10 pmoles of [^3H]FPP (−30,000 dpm/pmol) and 1.8-3.5 μg of partially purified farnesyl:protein transferase (see below). After incubation for 1 h at 37° C. in 12×75-mm borosilicate tubes, the reaction was stopped by addition of 0.5 ml of 4% SDS and then 0.5 ml of 30% trichloroacetic acid (TCA).
The tubes were vortexed and left on ice for 45-60 min, after which 2 ml of a 6% TCA/2% SDS solution were added. […] The tubes were rinsed twice with 2 ml of the same solution, and each filter was washed five times with 2 ml of 6% TCA, dried, and counted in a scintillation counter. One unit of activity is defined as the amount of enzyme that transfers 1 pmol of [^3H]farnesol from [^3H]FPP into acid-precipitable p21^H-ras per hour under the standard conditions.
In the enzyme characterization experiments of FIGS. 1-4, 8, and 9, a partially purified fraction of farnesyl:protein transferase was used. […] The column was equilibrated with 50 mM Tris-chloride (pH 7.5) containing 1 mM DTT, 0.2 M NaCl, 20 μM ZnCl2, and 0.2% octyl-β-glucopyranoside and eluted with the same buffer at a flow rate of 15 ml/h.
This blank value was subtracted before calculating “% of control” values.

[2] = molecular target: T2, partially purified rat brain farnesyl:protein transferase (Rattus norvegicus, UniProt Q02293+Q04631); experiment: Substrate saturation of farnesyl:protein transferase (FIG. 2); conditions: 1 h at 37° C.
T2 construct: Brains from 50 male Sprague-Dawley rats (100-150 g) were homogenized; from tissue
Method: FIG. 2. Substrate Saturation Curves for Farnesyl:Protein Transferase. Panel A, each standard reaction mixture contained 1.8 μg of partially purified farnesyl transferase, 40 μg p21^H-ras, [^3H]FPP (250,000 dpm); and varying amounts of unlabeled FPP to give the indicated final concentration of [^3H]FPP. […] For both panels, assays were carried out in duplicate for 1 h at 37° C., and TCA-precipitable radioactivity was measured as described in the Example.
as §1, with “After incubation for 1 h at 37° C. in 12×75-mm borosilicate tubes, the reaction was stopped by addition of 0.5 ml of 4% SDS and then 0.5 ml of 30% trichloroacetic acid (TCA).” left out
The tubes were vortexed and left on ice for 45-60 min, after which 2 ml of a 6% TCA/2% SDS solution were added. […] The tubes were rinsed twice with 2 ml of the same solution, and each filter was washed five times with 2 ml of 6% TCA, dried, and counted in a scintillation counter. […]

[3] = molecular target: T3, purified farnesyl:protein transferase (Rattus norvegicus, UniProt Q02293+Q04631); experiment: Farnesylation of tetrapeptides by purified farnesyl:protein transferase, thin layer chromatography (substrate or pure inhibitor); conditions: 3.6 μM tetrapeptide, purified enzyme (FIG. 15)
T3 construct: Brains from 50 male Sprague-Dawley rats (100-150 g) were homogenized; from tissue
Method: FIG. 15. […] The standard assay mixture (25 μl) contained 17 pmol [^3H]FPP (44,000 dpm/pmol), 5 ng of purified farnesyl:protein transferase, 0.2% (w/v) octyl-β-D-glucoside, and 3.6 μM of the indicated tetrapeptide. After incubation for 15 min at 37° C., the entire reaction mixture was subjected to thin layer chromatography for 4 h on Polygram SIL G sheet (Brinkmann Instruments) in a solvent system containing N-propanol/concentrated NH4OH/water (6:3:1). The TLC sheet was then dried, sprayed with ENHANCE Spray (Dupont-New England Nuclear) and exposed to Kodak X-OMAT AR Film XAR-5 for 25 h at −70° C.

Molecule	inhibitory activity against farnesylation of p21H-ras (in words) [1]	concentration giving half-maximal reaction velocity [2]	pure inhibitor or substrate for farnesylation [3]
TKVCIM: hexapeptide with cysteine transposed from fourth to third position from the COOH-terminus	severely reduced inhibitory activity; also recorded: inhibitory activity of the peptide is reversed		
S-acetoamidated CVIM: CVIM alkylated on cysteine with iodoacetamide (C(acetamide)VIM)	appears to lose much of its inhibitory activity		
CC(C)=CCC/C(C)=C/CC/C(C)=C/COP(=O)(O)OP(=O)(O)O [[^3H]farnesyl pyrophosphate, [1-^3H]Farnesyl pyrophosphate]		approximately 0.5 μM	
CC[C@H](C)[C@H](NC(=O)[C@@H](NC(=O)[C@@H](N)CS)C(C)C)C(=O)N[C@@H](CCSC)C(=O)O [CVIM] (H-CVIM-OH; N-terminus and C-terminus assumed)	sufficient for competition		Farnesylation
CFVM: related peptide, inhibitory through action as a substrate for farnesylation (CVFM)			not a “pure” inhibitor

— US6632626B1, “Methods of assaying farnesyl transferase” (Board of Regents, The University of Texas System, priority 1990, dated 2003)
